The source of these data is US20100325744A1 (Genmab, published 2010).

Series [1] deals with the molecule itself. Put plainly: self-association; gel filtration on Superdex 200 in PBS, fractions read by Bet v 1 binding test. On the technique in general: Size exclusion chromatography separates by hydrodynamic size, large species first.
Experimental: Samples (100 μl) were applied to a Superdex 200 HR 10/30 column (Amersham Biosciences, Uppsala, Sweden), which was connected to a HPLC system (ÄKTA explorer) from Amersham Biosciences, Uppsala, Sweden. The column was first equilibrated in PBS. Fractions of 250 μl were collected, in which Bet v 1 specific IgG was measured using the antigen binding assay.
To test the antigen binding of the Bet v 1 specific antibodies, a sample of diluted antibody was incubated overnight at room temperature with 0.75 mg Protein-G sepharose (Amersham Biosciences, Uppsala, Sweden) in 750 μl PBS/AT (PBS supplemented with 0.3% BSA, 0.1% Tween-20, 0.05% NaN3) together with 50 μl diluted ¹²⁵I-labelled Bet v 1 or ¹²⁵I-labelled Fel d 1. […] After washing the Sepharose suspension with PBS-T (PBS supplemented with 0.1% Tween-20), the bound radioactivity was measured. The results were expressed as the amount of radioactivity relative to the amount added.
Another series addresses T1, human C1q (Quidel) (human, UniProt P02745 23-245; P02746 28-253; P02747 29-245).
T1 construct: Bought (Quidel, lot 900848); also called first component of the classical complement cascade
Put plainly: ELISA, antibody coated, C1q detected with rabbit anti-human C1q. In general terms: ELISA stands for enzyme-linked immunosorbent assay.

T1 sequence (P02745 23-245 limits assumed, chain 1 of 3): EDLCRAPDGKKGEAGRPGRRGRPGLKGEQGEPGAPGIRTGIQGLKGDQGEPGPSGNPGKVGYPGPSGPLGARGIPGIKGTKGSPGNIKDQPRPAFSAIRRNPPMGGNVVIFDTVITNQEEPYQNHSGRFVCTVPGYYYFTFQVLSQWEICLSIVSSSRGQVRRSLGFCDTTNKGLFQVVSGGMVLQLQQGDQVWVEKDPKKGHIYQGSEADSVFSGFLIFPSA
T1 sequence (P02746 28-253 limits assumed, chain 2 of 3): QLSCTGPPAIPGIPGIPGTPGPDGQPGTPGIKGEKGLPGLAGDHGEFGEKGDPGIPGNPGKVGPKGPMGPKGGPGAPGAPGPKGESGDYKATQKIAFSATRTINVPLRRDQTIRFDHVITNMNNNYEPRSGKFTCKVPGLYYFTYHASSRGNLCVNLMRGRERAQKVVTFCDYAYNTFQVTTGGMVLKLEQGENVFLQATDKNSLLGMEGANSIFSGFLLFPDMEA
T1 sequence (P02747 29-245 limits assumed, chain 3 of 3): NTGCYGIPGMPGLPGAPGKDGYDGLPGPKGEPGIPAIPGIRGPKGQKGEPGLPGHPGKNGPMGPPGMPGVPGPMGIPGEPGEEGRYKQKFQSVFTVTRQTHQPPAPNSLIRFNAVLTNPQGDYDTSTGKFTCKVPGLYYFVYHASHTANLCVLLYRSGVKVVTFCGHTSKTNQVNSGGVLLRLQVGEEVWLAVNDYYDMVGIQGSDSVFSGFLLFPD
Experimental for human C1q (Quidel): In short, microtiter ELISA plates (Greiner, Germany) were coated overnight at RT with the test antibodies serially diluted from 10 μg/ml to 0.06 μg/ml in PBS. Plates were emptied and wells were blocked with 200 μl ELISA-diluent per well (0.1 M NaPO₄, 0.1 M NaCl, 0.1% gelatin and 0.05% Tween-20), at RT for 30 minutes. […] After washing the plates (3×) with PBST, wells were incubated with HRP-conjugated swine anti-rabbit IgG-Fc (DAKO, P0300, lot #069) diluted in ELISA diluent (1:2500, 100 μl/well, RT, 1 hour). Thereafter, plates were washed thrice and assays were developed with freshly prepared 1 mg/ml ABTS solution (ABTS: 2,2′-azino-bis[3-ethylbenzthiazoline-6-sulfonic acid]); 2 tablets of 5 mg in 10 ml ABTS buffer, Boehringer Mannheim, Ingelheim, Germany) at RT in the dark for 30 minutes.

B1: Betv1-HG (antibody, V domains shown)
VH: EVQLQQSGAELVKPGASVKLSCTASGFNIKDTYIHWVKQRPEQGLEWVGRIDPATGNTRYDPKFQGKATITADTSSNTAYLQLSSLTSEDTAVYYCASFRPGYALDYWGQGTSVTVSS
VL: DIVMTQSHKFMSTSVGDRVSFTCKASQDVFTAVAWYQQKPGQSPKLLIYWASTRRTGVPDRFTGSGSGTDYTLTISSVQAEDLALYYCQQHFSTPPTFGGGTKLEIK
notes: Half-molecule of one heavy and one light chain; also called hingeless IgG4 anti-Bet v 1; hingeless rIgG4 Betv1-HG; not shown: human kappa light chain constant region, allotype km3 (vector pConKappa0.4, Lonza)
As for B1, in series [1], the binding result is listed as “no binding”.

B2: 7D8-IgG4 (antibody)
heavy: not shown
light: EIVLTQSPATLSLSPGERATLSCRASQSVSSYLAWYQQKPGQAPRLLIYDASNRATGIPARFSGSGSGTDFTLTISSLEPEDFAVYYCQQRSNWPITFGQGTRLEIK
notes: Produced from pTomG47D8 and pConK7D8; also called IgG4 anti-CD20; not shown: human kappa light chain constant region, allotype km3 (vector pConKappa0.4, Lonza)
For the molecule B2, the binding result with human C1q (Quidel) is reported as “no binding”.

B3: 7D8-HG (antibody)
heavy: EVQLVESGGGLVQPDRSLRLSCAASGFTFHDYAMHWVRQAPGKGLEWVSTISWNSGTIGYADSVKGRFTISRDNAKNSLYLQMNSLRAEDTALYYCAKDIQYGNYYYGMDVWGQGTTVTVSSASTKGPSVFPLAPCSRSTSESTAALGCLVKDYFPEPVTVSWNSGALTSGVHTFPAVLQSSGLYSLSSVVTVPSSSLGTKTYTCNVDHKPSNTKVDKRVAPEFLGGPSVFLFPPKPKDTLMISRTPEVTCVVVDVSQEDPEVQFNWYVDGVEVHNAKTKPREEQFNSTYRVVSVLTVLHQDWLNGKEYKCKVSNKGLPSSIEKTISKAKGQPREPQVYTLPPSQEEMTKNQVSLTCLVKGFYPSDIAVEWESNGQPENNYKTTPPVLDSDGSFFLYSRLTVDKSRWQEGNVFSCSVMHEALHNHYTQKSLSLSLGK
light: EIVLTQSPATLSLSPGERATLSCRASQSVSSYLAWYQQKPGQAPRLLIYDASNRATGIPARFSGSGSGTDFTLTISSLEPEDFAVYYCQQRSNWPITFGQGTRLEIK
notes: Half-molecule of one heavy and one light chain; in PBS without other IgG it is reported to form a non-covalent dimer; also called hingeless IgG4 anti-CD20; IgG4 HG; not shown: human kappa light chain constant region, allotype km3 (vector pConKappa0.4, Lonza)
As for B3, in the series with human C1q (Quidel), the binding result was “no binding”.
